B1: ZNF649 (parent)
chain: MTKAQESLTLEDVAVDFTWEEWQF
B2: TOR1AIP2 (parent)
chain: AGQEGEDTLRRRLLAPEAGSHPQQ

Variants of: B1
Experiment: protein stability index of a GFP-peptide fusion (GPS, HEK-293T) (PSI 1-6); higher = more stable
Conditions: c terminus: a fixed tail appended
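Further: lentivirally expressed fusions sorted by FACS into six bins by GFP to DsRed ratio, PSI derived from sequencing read proportions per bin multiplied by bin number.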

Protein stability index of substitutions, site by site:
E11: V 1.43, A 2.39, M 2.14, S 2.83, F 1.44, I 2.25, D 3.57, H 2, C 2.12, R 2.39, P 2.69, Q 3.9
A14: I 1.88, F 2.08, Q 3.61, D 4.04, S 3.06, T 2.92, N 2.92, W 3.29, M 2.46, Y 1.65, P 4.12, L 1.74, C 2.4
T2: A 3.09, E 3.94, L 3.97, W 2.36, F 2.66, I 2.75, G 3.25, Y 2.33, K 3.77, C 2.57, D 3.5, V 2.64, S 2.55
V13: L 3.23, H 3.88, N 4.33, F 2.54, K 4.16, W 2.36, M 3.54, D 4.11, E 4.25, S 4.69, Q 4.18, R 3.45
M1: D 3.95, Q 3.89, C 2.82, V 3.07, K 3.29, P 2.81, T 3.79, G 3.43, E 4.48, F 2.69, W 2.07, I 2.83, Y 2.96
D12: A 1.72, K 2.7, P 3.05, Q 2.84, M 2.14, I 2.95, G 2.55, E 3.23, S 2.13, F 3.77, C 2.65, H 2.68, N 2.23
S7: N 3.39, T 3.67, V 2.5, Y 2.54, W 1.72, L 2.43, G 3.8, D 3.75, K 3.01, F 3.2, M 2.69, I 3.1
F17: N 3.64, R 3.61, S 4.52, K 4.72, Y 3.76, A 4.42, G 3.81, W 3.31, P 4.43, M 4.17, I 4.25, L 4.03, E 5.01, D 4.75, T 3.95
L10: S 4.07, N 4.29, W 3.19, M 3.44, H 4.42, Y 3.24, F 3.61, D 4.91, R 3.88, A 3.8, T 4.05, G 4.14
E21: G 1.49, T 2.21, K 1.95, F 3.42, L 1.23, R 3.17, A 2.12, D 3.36, V 2.81, M 2.25, S 2.11
Q5: W 1.49, S 3.96, G 2.84, M 2.92, R 2.46, H 3.2, D 3.4, E 3.35, T 3.04, F 3.12, K 2.83, P 3.04, C 2.78
A4: G 2.94, D 3.48, E 3.66, K 3.15, Y 2.56, C 2.4, Q 3.18, L 3.71, P 3.75, I 2.89, W 2.15, M 2.5, S 3.45
W22: R 3.69, H 4.13, E 4.52, K 4.76, Y 3.44, A 4.17, T 4.28, V 3.96, G 4.33, D 4.64, N 4.27, L 3.62, S 4.78, I 3.54, F 3.41, C 3.12
W19: A 4.51, Q 4.43, F 3.19, Y 3.61, K 3.58, M 3.77, H 3.6, I 2.56, V 3.68, R 4.07, L 3, G 4.61, E 4.66, C 3.85
T9: W 2.54, L 2.54, H 3.81, C 3.52, E 3.94, Y 2.41, M 3.16, S 3.43, V 3.16, K 3.38, I 2.71, R 3.59, A 3.37, G 3.49
F24: W 2.88, I 2.51, Y 3.4, K 4.87, E 5.32, M 4.49, T 3.94, S 3.9, D 4.57, L 3.83, R 4.34, A 4.61
T18: K 2.48, S 3.15, M 2.39, R 2.17, W 1.51, P 3.16, V 1.95, L 2.26, D 4.1, G 3.37, C 2.64, E 3.32, Q 2.75, H 2.63
E6: G 2.74, F 1.89, P 2.78, V 1.75, I 4.31, Q 2.94, C 2.52, T 2.71, N 2.88, K 3.02, D 3.14, S 2.33, A 1.87, Y 1.53, R 2.88
V15: R 4.16, G 4.07, S 3.35, I 2.53, K 3.95, W 2.59, P 4.07, Q 4.44, T 4.1, C 3.71, H 4.33, Y 3.91, M 3.77, N 3.87
Q23: R 3.56, H 2.02, G 2.87, K 3.28, D 3.51, F 2.66, T 3.1, M 2.72, N 2.74, C 2.26, A 4.2, P 3.22, L 2.05, V 2.08
D16: E 1.85, Q 2.92, H 3.23, C 2.89, P 4.02, I 2.52, T 3.32, N 3.77, R 2.22, V 2.29, A 3.34, F 2.94
E20: K 2.51, G 2.17, H 2.22, A 2.48, L 1.3, D 3.14, M 2.57, R 2.06, C 2.48, I 1.87, N 2.41, V 3.37, S 2.65, T 2.5, Y 2, F 1.44
K3: M 2.64, Y 2.64, G 3.36, F 2.17, V 3.23, P 3.33, T 3.33, W 2.53, N 3.65, D 3.63, C 2.23, Q 2.98, E 4.29, R 3.12, I 2.74
L8: T 3.93, Y 2.7, I 3.05, H 4.05, D 4.41, G 4.11, R 3.79, F 2.5, K 4.31, V 3.59, E 4.39, P 3.58, N 4.42, M 3.62

Variants of: B2
Experiment: as above
Conditions: c terminus: a fixed tail appended

Protein stability index of substitutions, site by site:
Q24: L 1.79, W 2.17, I 2.16, S 2.4, P 2.41, R 2.05, N 2.25, T 2.22, M 2.81, H 1.7, Y 2.46, V 2.58

Source: the supplement of paper PMC10567573
